Target: CA09 N1 sNAp (stabilized recombinant N1 neuraminidase head of H1N1 A/California/07/2009) (Influenza A virus H1N1 A/California/07/2009)
Assay: cryo-EM structure

CA09 N1 sNAp (stabilized recombinant N1 neuraminidase head of H1N1 A/California/07/2009) (enzyme)
stoichiometry N: 4
